Results on three molecules are retold here after publication PMC6711944, “Structural insights into the species preference of the influenza B virus NS1 protein in ISG15 binding” (Protein & Cell, 2018).

Data set [1] concerns the target T1, human ISG15 (human, UniProt P05161 1-157).
T1 construct: also called hISG15
The data set can be described thus: ITC; isothermal titration calorimetry of NS1B-NTR and ISG15 proteins; which was titrated and the conditions are not told in the text shown. Conditions: both partners purified. For orientation: ITC needs no label: the signal is the heat of the interaction.

Data set [2] addresses T2, canine ISG15 (canine, UniProt A0A8I3P342 1-174).
T2 construct: also called cISG15
Described as above. Particulars: both partners purified.

Data set [3] addresses T3, hISG15 with the first two linker residues (Asp76, Lys77) converted to alanine (human, UniProt P05161 1-157, Asp76 to alanine | Lys77 to alanine).
T3 construct: also called the mutated hISG15
The data set is described as above. Particulars: both partners purified.

For data set [4], the target named is T4, murine ISG15 (murine, UniProt Q64339 1-155).
T4 construct: also called mISG15
The description is as above. Particulars: both partners purified.

Data set [5] has as its target T5, hISG15-L10A (human, UniProt P05161 1-157, L10A).
T5 construct: Mutant of m2
The data set is described as above. Conditions: both partners purified.

Data set [6] deals with T6, bovine ISG15 (bovine, UniProt O02741 1-154).
T6 construct: also called bISG15
The description is as above. Particulars: both partners purified.

Data set [7] deals with the molecule itself. The data set can be described thus: crystal structure; crystal structures of NS1B-NTR in complex with mISG15, cISG15 or bISG15.
Data set [8] deals with T7, NS1B-NTR (1-103), N-terminal region of the influenza B virus NS1 protein (influenza B virus, UniProt P03502 1-103).
T7 construct: not shown: GST, N-terminal, cleaved
T7 sequence: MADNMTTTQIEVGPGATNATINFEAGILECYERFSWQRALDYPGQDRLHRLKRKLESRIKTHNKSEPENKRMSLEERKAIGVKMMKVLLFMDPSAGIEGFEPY
Kind of data set: ITC; about 0.5 mM ISG15 injected into 250 ul of 0.05 mM NS1B-NTR in the cell, 20 aliquots of 2 ul; 25 °C; 10 mM HEPES-sodium, 500 mM NaCl, pH 7.2; MicroCal iTC200; 'one set of sites' fitting model. Conditions: both partners purified.

T2 sequence (A0A8I3P342 entry or part of it): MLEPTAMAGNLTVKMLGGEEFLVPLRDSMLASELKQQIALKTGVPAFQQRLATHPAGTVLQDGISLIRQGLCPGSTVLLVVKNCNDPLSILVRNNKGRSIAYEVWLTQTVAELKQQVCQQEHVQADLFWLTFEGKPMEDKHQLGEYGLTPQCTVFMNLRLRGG
T1 sequence (P05161 1-157): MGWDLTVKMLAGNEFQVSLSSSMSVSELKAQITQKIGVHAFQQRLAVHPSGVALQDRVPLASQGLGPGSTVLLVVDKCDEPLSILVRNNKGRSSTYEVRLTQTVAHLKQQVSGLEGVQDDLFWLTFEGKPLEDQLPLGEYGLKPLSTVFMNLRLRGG
T3 sequence (P05161 other isoform, or with tags, fused parts or gaps with the stated changes): as the sequence (P05161 1-157) above, with D76A, K77A counted along it
T5 sequence (P05161 1-157 L10A): as the sequence (P05161 1-157) above, with L10A counted along it

B1: NS1B-NTR, containing the 103 N-terminal residues of NS1B (influenza B virus NS1 protein) (domain or fragment)
chain: MADNMTTTQIEVGPGATNATINFEAGILECYERFSWQRALDYPGQDRLHRLKRKLESRIKTHNKSEPENKRMSLEERKAIGVKMMKVLLFMDPSAGIEGFEPY
notes: the same region as in the cited hISG15/NS1B-NTR structure PDB 3RT3
Turning to B1, the Kd came to 0.28 µM in data set [1]; 34 µM in data set [2]; 5 µM in data set [3]; 13 µM in data set [4]; 17 µM in data set [5]; 12 µM in data set [6]. Moreover, the “stoichiometry N” value in data set [1] was found to be 1; in data set [2], 1; in data set [4] it was 1; in data set [6], 1; in data set [7], 2.

B2: bISG15-Q76A-N77A (natural protein)
chain: MGGDLTVKMLGGQEILVPLRDSMTVSELKQFIAQKINVPAFQQRLAHLDSREVLQEGVPLVLQGLRAGSTVLLVVAASISILVRNDKGRSSPYEVQLKQTVAELKQQVCQKERVQADQFWLSFEGRPMDDEHPLEEYGLMKGCTVFMNLRLRGG
notes: not shown: GST, N-terminal, cleaved
Take B2: in data set [8], the dissociation constant Kd was determined as 10 µM.

B3: mISG15-Q74A-N75A (natural protein)
chain: MAWDLKVKMLGGNDFLVSVTNSMTVSELKKQIAQKIGVPAFQQRLAHQTAVLQDGLTLSSLGLGPSSTVMLVVAASSEPLSILVRNERGHSNIYEVFLTQTVDTLKKKVSQREQVHEDQFWLSFEGRPMEDKELLGEYGLKPQCTVIKHLRLRGG
notes: as for B2
The molecule B3 yielded a Kd in data set [8] of 6 µM.

In general, Kd refers to the free concentration of one partner at which half of the binding sites on the other are occupied at equilibrium, for simple one-to-one binding. Higher therefore signals lower affinity. For orientation: stoichiometry N means the number of molecules, sites or subunits per partner or assembly.
